Experimental data taken from publication PMC4403821.

How the values were obtained:
[1] = molecular target: ORF74-ST/A (Kaposi's sarcoma-associated herpesvirus (KSHV)) (UniProt Q98146); assay: radioligand binding; whole transfected HEK293T cells, 100 pM ^125I-CXCL10 with increasing unlabeled CXCL10, 3h at 4°C, 50 mM HEPES pH 7.4, 1 mM CaCl2, 5 mM MgCl2, 0.5% BSA; washes with 0.5 M NaCl; Ki from IC50 by Cheng and Prusoff
[2] = molecular target: ORF74-ST/A (Kaposi's sarcoma-associated herpesvirus (KSHV)) (UniProt Q98146)
^125I-CXCL8 = assay: radioligand binding (125I-CXCL8 homologous competition) on intact HEK293T cells; conditions: point at the lowest unlabeled CXCL8 concentration, log [CXCL8] = -11 M; parent: est. 100; read off a plot

Substance: CXCL10 (from UniProt P02778 22-98) (ligand)
- pKi [1]: 8.4
- inhibition of constitutive PLC activation (InsP accumulation) in HEK293T, pEC50 [2]: 8

Substance: WT-ORF74 (from UniProt Q98146) S315A; S319A; S331A; S335A; S338A; T341A; T342A
- percent of parent (% of specific binding of WT-ORF74) (^125I-CXCL8): 3

Substance: CXCL8 (ligand)
- PLC activation (InsP accumulation) in HEK293T, pEC50 [2]: > 7
